One substance from publication PMC3572029 can be followed below.

The test has as its target HSF1β-EGFP (heat shock factor 1, short β splicing isoform, fused to EGFP) (mouse).

Chain of HSF1β-EGFP (heat shock factor 1, short β splicing isoform, fused to EGFP) (mouse) (P38532 whole entry, the tested form may be a part, canonical isoform): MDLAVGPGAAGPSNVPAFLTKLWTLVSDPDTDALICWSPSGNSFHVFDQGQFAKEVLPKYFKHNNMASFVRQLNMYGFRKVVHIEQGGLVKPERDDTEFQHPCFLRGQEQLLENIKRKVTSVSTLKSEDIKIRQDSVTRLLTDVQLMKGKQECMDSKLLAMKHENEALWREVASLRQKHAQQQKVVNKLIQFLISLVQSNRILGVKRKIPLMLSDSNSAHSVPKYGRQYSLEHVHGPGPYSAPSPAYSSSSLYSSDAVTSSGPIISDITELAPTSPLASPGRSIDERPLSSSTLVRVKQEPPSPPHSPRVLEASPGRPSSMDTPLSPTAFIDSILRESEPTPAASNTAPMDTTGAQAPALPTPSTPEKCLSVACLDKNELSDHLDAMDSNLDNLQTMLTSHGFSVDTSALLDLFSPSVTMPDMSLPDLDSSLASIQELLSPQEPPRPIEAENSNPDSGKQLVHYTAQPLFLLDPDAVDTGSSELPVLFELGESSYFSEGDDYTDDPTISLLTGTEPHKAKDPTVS

The substance “HSF2β (heat shock factor 2, short β splicing isoform) (natural protein)” gave an HSE-driven firefly luciferase reporter activity of HSF1β in Hsf1.2−/− iMEFs co-transfected with HSF2β, MG132 at 2.5 µM of 3 fold.
